Results as given in patent publication US7537764.
Read-outs that look alike come from different tables or passages of the source.

Experiments:
[1] = target: West Nile virus strain USA99b (strain 385-99), whole virus (West Nile virus strain 385-99 (USA99b)); test: ELISA on irradiated WNV; IgG1 at 0.039 µg/ml
[2] = target: West Nile virus strain USA99b (strain 385-99), whole virus (West Nile virus strain 385-99 (USA99b)); test: ELISA on irradiated WNV; IgG1 at 1.250 µg/ml
[3] = target: West Nile virus strain USA99b (strain 385-99), whole virus (West Nile virus strain 385-99 (USA99b)); test: ELISA on irradiated WNV; IgG1 at 0.078 µg/ml
[4] = target: West Nile virus strain USA99b (strain 385-99), whole virus (West Nile virus strain 385-99 (USA99b)); test: ELISA on irradiated WNV; IgG1 at 10.000 µg/ml
[5] = target: West Nile virus strain USA99b (strain 385-99), whole virus (West Nile virus strain 385-99 (USA99b)); test: ELISA on irradiated WNV; IgG1 at 0.310 µg/ml
[6] = target: West Nile virus strain USA99b (strain 385-99), whole virus (West Nile virus strain 385-99 (USA99b)); test: ELISA on irradiated WNV; IgG1 at 0.160 µg/ml
[7] = target: West Nile virus strain USA99b (strain 385-99), whole virus (West Nile virus strain 385-99 (USA99b)); test: ELISA on irradiated WNV; IgG1 at 0.000 µg/ml (no antibody)
[8] = target: West Nile virus strain USA99b (strain 385-99), whole virus (West Nile virus strain 385-99 (USA99b)); test: cell-based or functional assay
[9] = target: West Nile virus strain USA99b (strain 385-99), whole virus (West Nile virus strain 385-99 (USA99b)); test: ELISA on irradiated WNV; IgG1 at 5.000 µg/ml
[10] = target: West Nile virus strain USA99b (strain 385-99), whole virus (West Nile virus strain 385-99 (USA99b)); test: ELISA on irradiated WNV; IgG1 at 2.500 µg/ml
[11] = target: West Nile virus strain USA99b (strain 385-99), whole virus (West Nile virus strain 385-99 (USA99b)); test: ELISA on irradiated WNV; IgG1 at 0.630 µg/ml
[12] = target: West Nile virus strain USA99b (strain 385-99), whole virus (West Nile virus strain 385-99 (USA99b)); test: phage ELISA on coated whole inactivated WNV
[13] = target: West Nile virus strain USA99b (strain 385-99), whole virus (West Nile virus strain 385-99 (USA99b)); test: SPR as in Example 9, WNV captured via immobilized CR4283, average of duplicates
[14] = target: West Nile virus strain USA99b (strain 385-99), whole virus (West Nile virus strain 385-99 (USA99b)); test: ELISA on irradiated WNV; IgG1 at 20.000 µg/ml
[15] = target: West Nile virus strain USA99b (strain 385-99), whole virus (West Nile virus strain 385-99 (USA99b)); test: ELISA on irradiated WNV; IgG1 supernatant diluted 1:125
[16] = target: West Nile virus strain USA99b (strain 385-99), whole virus (West Nile virus strain 385-99 (USA99b)); test: ELISA on irradiated WNV; IgG1 supernatant diluted 1:5
[17] = target: West Nile virus strain USA99b (strain 385-99), whole virus (West Nile virus strain 385-99 (USA99b)); test: ELISA on irradiated WNV; IgG1 supernatant diluted 1:25
[18] = target: West Nile virus strain USA99b (strain 385-99), whole virus (West Nile virus strain 385-99 (USA99b))

| Binder | OD 492 nm [1] [OD] | OD 492 nm [2] [OD] | OD 492 nm [3] [OD] | OD 492 nm [4] [OD] | OD 492 nm [5] [OD] | OD 492 nm [6] [OD] | OD 492 nm [7] [OD] | OD 492 nm [9] [OD] | OD 492 nm [10] [OD] | OD 492 nm [11] [OD] | OD 492 nm [12] [OD] | Kd [13] [nM] | further results |
| --- | --- | --- | --- | --- | --- | --- | --- | --- | --- | --- | --- | --- | --- |
| CR4289 (antibody, V domains shown) VH: EVQLVQSGAEVKKPGESLRISCKGSGYSFTSNWITWVRQMPGKGLEWMGRIDPSDSYTNYSPSFQGHVTISADKSISTAYLQWSSLKASDTAMYYCARDVVGVGASDYYYYMDVWGQGTTVTVSS VL: EIVLTQSPGTLSLSPGETATLSCRTSQSVSSSYLGWYQQKPGQAPRLLIYGASIRATGIPARFSGSGSGTEFTLTIDSLQSEDFAVYYCQQYNNWPPITFGQGTRLEIKR | 0.147 | 0.415 | 0.209 | 0.752 | 0.313 | 0.25 | 0.003 | 0.586 | 0.492 | 0.351 |  |  | potency in the 66% neutralizing antibody titer assay [8]: 10.1 µg/mL |
| SC04-374 (scFv) scFv: QVTLKESGPTLVKPTQTLTLTCTFSGFSLSTSGVGVGWIRQPPGKALEWLAVIYWNDDKLYRPSLKSRLTITKDTSKNQVVLTMTKMDPVDTATYYCAHRHRYYDISGYYRLFSDAFDIWGQGTMVTVSSGTGGSGGTGSGTGGSTQSVVTQPPSVSGAPGQRVTISCTGSSSNIGAGYDVHWYQQLPGTAPKLLIYGNSNRPSGVPDRFSGSKSGTSASLAITGLQAEDEADYYCQSYDSSLSGSVFGGGTKLTVLG |  |  |  |  |  |  |  |  |  |  | 0.975 |  |  |
| CR5074 (antibody, V domains shown) VH: QVTLKESGPTLVKPTQTLTLTCTFSGFSLSTSGVGVGWIRQPPGKALEWLAVIYWNDDKLYRPSLKSRLTITKDTSKNQVVLTMTKMDPVDTATYYCAHRHRYYDISGYYRLFSDAFDIWGQGTMVTVSS VL: QSVLTQPPSVSGAPGQRVTISCTGSSSNIGTGYDVHWYQQLPGTAPKLLIYADTNRPSGVPDRFSGSKSGTSASLAITGVQAEDEADYYCQSYDTSLTGWVFGGGTKVTVLG |  |  |  |  |  |  |  |  |  |  |  | 3.9 |  |
| CR5080 (antibody, V domains shown) VH: QVTLKESGPTLVKPTQTLTLTCTFSGFSLSTSGVGVGWIRQPPGKALEWLAVIYWNDDKLYRPSLKSRLTITKDTSKNQVVLTMTKMDPVDTATYYCAHRHRYYDISGYYRLFSDAFDIWGQGTMVTVSS VL: QSVLTQPPSVSGAPGQRVTISCTGSSSNIGAGYDVHWYQQLPGTAPKLLIYGNSNRPSGVPDRFSGSKSGTSASLAITGLQAEDEADYYCQSYDSSLSGWAFGGGTKLTVLG |  |  |  |  |  |  |  |  |  |  |  | 2.7 |  |
| CR5088 (antibody, V domains shown) VH: QVTLKESGPTLVKPTQTLTLTCTFSGFSLSTSGVGVGWIRQPPGKALEWLAVIYWNDDKLYRPSLKSRLTITKDTSKNQVVLTMTKMDPVDTATYYCAHRHRYYDISGYYRLFSDAFDIWGQGTMVTVSS VL: QSVVTQPPSVSGAPGQRITISCTGSSSNIGAGYDVHWYQQLPGTAPKFLIYGNSNRPSGVPDRFSGSKSGTSASLAITGLQAEDEADYYCQSYDSSLSGWVFGGGTKLTVLG |  |  |  |  |  |  |  |  |  |  |  | 1.7 |  |
| CR5085 (antibody, V domains shown) VH: QVTLKESGPTLVKPTQTLTLTCTFSGFSLSTSGVGVGWIRQPPGKALEWLAVIYWNDDKLYRPSLKSRLTITKDTSKNQVVLTMTKMDPVDTATYYCAHRHRYYDISGYYRLFSDAFDIWGQGTMVTVSS VL: QSVVTQPPSVSGAPGQRVTISCTGSSSNIGAGYDVHWYQQLPGTAPKLLIYGNSNRPSGVPDRFSGSKSGTSASLAITGLQAEDETDYYCQSYDSSLNGWVFGGGTKLTVLG |  |  |  |  |  |  |  |  |  |  |  | 3.7 |  |
| SC04-361 (scFv) scFv: EVQLVQSGAEVKKPGESLKISCKASGFSFSTYWIGWVRQMPGKGLEWMGIIYPADSDTRYSPSFQGQVTISADKSISTAYLQWSSLKASDTAMYYCARLRGPYYDFWNGYRETHDAFNVWGQGTMVTVSSGTGGSGGTGSGTGGSTDVVMTQSPDSLAVSLGERATINCKSSQNILDNSDNKNFLAWYQQKPGQPPKLLIYWASARESGVPDRFSGSGSGTDFTLTISSLQAEDVALYYCQQYYNTPITFGQGTRLEIKR |  |  |  |  |  |  |  |  |  |  | 0.66 |  |  |
| CR4299 (antibody, V domains shown) VH: QVQLVESGGGVVQPGRSLRLSCAASGFTFSGYAMHWVRQAPGKGLDWVAVISYDGSEKYSADSVKGRFTISRDNSKNTLYLQMNSLRAEDTAVYYCAKESGGPIWYKYYGVDVWGQGTTVTVSS VL: SYVLTQPPSLSAAPRQRVTISCSGSSSNIGNYGVNWYQQLPGKAPKLLIYYDDLLPSGVSDRFSGSKSGTSASLAISGLQSEDEGDYYCAAWDDTLSAWVFGGGTKLTVLG | 0.227 | 0.977 | 0.446 | 1.12 | 0.756 | 0.61 | 0.003 | 1.07 | 1.03 | 0.891 |  |  | OD 492 nm [14]: 1.19 OD; potency in the 66% neutralizing antibody titer assay [8]: 3 µg/mL; OD 492 nm [15]: 0.929 OD; OD 492 nm [16]: 1.48 OD; OD 492 nm [17]: 1.34 OD |
| SC04-353 (scFv) scFv: EVQLVQSGGGVVQPGRSLRLSCAASGFTFSNYAMHWVRQAPGKGLEWVAVISYDGGNKYYADSVKGRFTMSRDNSKNTLYLQMNSLRAEDTAVYYCARDFWSGYSMVDSYYYYMDVWGKGTTVTVSSGTGGSGGTGSGTGGSTETTLTQSPGTLSLSPGERATLSCRASQSVSNTFLAWYQQKPGQAPRLLIYGASSRATGIPDRFSGSGSGTDFTLTISRLEPEDFAAYYCQQYGSSLTFGPGTKVDIKR |  |  |  |  |  |  |  |  |  |  | 1 |  |  |
| CR4353 (antibody, V domains shown) VH: QVQLVESGGGVVQPGRSLRLSCAASGFTFSNYAMHWVRQAPGKGLEWVAVISYDGGNKYYADSVKGRFTMSRDNSKNTLYLQMNSLRAEDTAVYYCARDFWSGYSMVDSYYYYMDVWGQGTTVTVSS VL: ETTLTQSPGTLSLSPGERATLSCRASQSVSNTFLAWYQQKPGQAPRLLIYGASSRATGIPDRFSGSGSGTDFTLTISRLEPEDFAAYYCQQYGSSLTFGPGTKVDIKR | 0.595 | 1.42 | 0.734 | 1.57 | 1.17 | 1.07 | 0.003 | 1.55 | 1.43 | 1.33 |  |  | Kd [18]: 6.5 nM |
